Test [1] has as its system anti-peptide SEQ ID NO:37 antibody. Put plainly: Competition of antibody binding by pre-incubation with the immunizing peptide. Set-up: species or system rabbit. Particulars: pre-incubation of purified immune serum with soluble peptide, 30 min, room temperature. From the text:
FIGS. 2A-2F show flow cytometric analysis of J^intJ-Cβ2 expression by mesenchymal cells. Mouse embryonic fibroblasts (MEF) (2E) and different MBA-13 cell strains (1-3; 2A-2C, respectively) were stained with preimmunized (histogram I) or immunized (histogram II) purified antibodies from rabbit serum. The rabbits were immunized with a synthetic segment of SEQ ID NO:2, namely SEQ ID NO:37, with the sequence LAEPRGFVCGVE. As a second antibody, we used Fab FITC conjugated donkey anti-rabbit IgG. Staining with second antibody only gave a histogram shown in histogram III. Cells stained with rabbit polyclonal antibodies to irrelevant peptide 1121 of the sequence RGGGGGRGGLHD, similarly produced and purified, served as negative control (histogram IV). Competition of antibody binding was performed by pre-incubation of the purified immune serum with the specific immunizing peptide SEQ ID NO:37 for 30 min at room temperature (2D, histogram). Competition with irrelevant peptide 1121 served as negative control (data not shown). The results of one experiment, out of three performed, are shown.
This strongly supports the conclusion that J^int-Jβ2.6-C protein is present on the surface of the MBA-13 cells. It is noteworthy that thymocytes do express J^int-Jβ2.6-C on the mRNA level but are not reactive with the antibody (FIGS. 2F and 3). […]

Test [2] deals with J^int-Jβ2.6-C protein (truncated mesenchymal TCRβ lacking the V region) (mouse). Description: flow cytometry on MBA-13 cells.
For the next test, the system named is 293T cells. Put plainly: Cell cycle flow cytometric analysis of transfected 293T cells. Type of test: cell-based, human. The note with it: 293T cells co-transfected with pTα. From the text:
FIG. 13 Recombinant mesenchymal TCRβ (GFP-J^int-Jβ2.6-C) in a preTCR-like complex causes apoptotic cell death upon overexpression. (A) Immunofluorescence analysis of cells transfected with cDNA constructs encoding a fusion protein of J^int-Jβ2.6-C linked to GFP, together with pTα HA vector. (B) Western blot analysis of extracts from 293T cells transfected with GFP-J^int-Jβ2.6-C together with HA-pTα (lane 1). Control GFP and HA vectors (lane 2), GFP vector and HA-pTα0 (lane 3), HA vector and GFP-J^int-Jβ2.6-C (lane 4) and untransfected cells (lane 5). Immunoblotting was performed with an anti-GFP monoclonal antibody. The position of the fusion protein, GFP-J^int-Jβ2.6-C is indicated (GFP-J^int) as is the position of GFP free protein (GFP). (C) Cell cycle flow cytometric analysis of 293T cells transfected with the indicated vectors. The cell cycle analysis of GFP negative cells that were treated with GFP-J^int-Jβ2.6-C and pTα but remained untransfected (C-I) serves as a representative control; similar patterns were observed following transfection with empty vectors or separately with GFP-J^int-Jβ2.6-C and pTα. […]
Next, we examined the results of overexpression of J^int-Jβ2.6-Cβ. A cDNA construct encoding a fusion protein of J^int-Jβ2.6-C N-terminally linked to green fluorescence protein (GFP) was transfected along with pTα into human 293T cells (FIG. 13). […]

“LAEPRGFVCGVE (listed as Mus musculus) [immunizing peptide]”: the “competition of antiserum staining of MBA-13 cells” value in test [1] is “reduced the ability of the antiserum to stain the cells”. “hamster anti-mouse TCRβ monoclonal antibody, clone H57-597” showed a percent of the cell population stained in test [2] of 34%.

B1: GFP-J^int-Jβ2.6-Cβ: fusion protein of J^int-Jβ2.6-C N-terminally linked to green fluorescence protein (GFP), expressed from a cDNA construct (protein)
chain: MGEYLAEPRGFVCGVEPLCSYEQYFGPGTRLTVLEDLRNVTPPKVSLFEPSKAEIANKQKATLVCLARGFFPDHVELSWWVNGKEVHSGVSTDPQAYKESNYSYCLSSRLRVSATFWHNPRNHFRCQVQFHGLSEEDKWPEGSPKPVTQNISAEAWGRADCGITSASYHQGVLSATILYEILLGKATLYAVLVSGLVLMAMVKKKNS
modifications: left off: large carriers
notes: fusion protein of J^int-Jβ2.6-C N-terminally linked to green fluorescence protein (GFP), expressed from a cDNA construct
Consider B1, for which the “shift of the population to sub-G1, indicating massive apoptosis” value in the test on 293T cells came out at 59%.

The values are drawn from patent publication US20040259196A1, “T cell receptor variants expressed in mesenchymal cells and uses thereof” (priority 2001, published 2004).
